Source: patent publication US20200317768A1 (published 2020)

T1: cynomolgus monkey FcγRIIa1 extracellular domain, His-tagged (cynomolgus monkey)
T1 construct: also called cyno FcgRIIa1; cynoFcγRIIa1; not shown: His-tag added to the C-terminus
T1 chain: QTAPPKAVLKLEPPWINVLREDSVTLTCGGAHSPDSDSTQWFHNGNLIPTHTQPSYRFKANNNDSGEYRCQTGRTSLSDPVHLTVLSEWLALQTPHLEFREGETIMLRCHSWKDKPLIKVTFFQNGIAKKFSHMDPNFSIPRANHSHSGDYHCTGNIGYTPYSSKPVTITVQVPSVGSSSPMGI

T2: cynomolgus monkey FcγRIIa2 extracellular domain, His-tagged (cynomolgus monkey)
T2 construct: also called cyno FcgRIIa2; cynoFcγRIIa2; not shown: His-tag added to the C-terminus
T2 chain: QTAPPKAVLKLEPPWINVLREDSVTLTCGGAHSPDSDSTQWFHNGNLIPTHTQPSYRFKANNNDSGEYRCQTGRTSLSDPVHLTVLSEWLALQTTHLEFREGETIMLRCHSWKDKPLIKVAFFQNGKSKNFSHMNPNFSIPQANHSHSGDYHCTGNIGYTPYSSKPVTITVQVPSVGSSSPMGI

T3: human FcγRIIaR extracellular domain, His-tagged (human, UniProt P12318 34-217)
T3 construct: also called human FcgRIIaR; FcγRIIa (type R); not shown: His-tag added to the C-terminus
T3 chain: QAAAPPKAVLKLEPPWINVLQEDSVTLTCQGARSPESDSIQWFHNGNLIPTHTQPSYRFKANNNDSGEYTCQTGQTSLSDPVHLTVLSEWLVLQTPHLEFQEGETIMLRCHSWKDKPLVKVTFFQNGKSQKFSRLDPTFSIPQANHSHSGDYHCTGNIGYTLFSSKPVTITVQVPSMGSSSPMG

T4: cynomolgus monkey FcγRIIb extracellular domain, C-terminal His-tag (cynomolgus monkey)
T4 construct: also called cyno FcγRIIb; cynoFcγRIIb; not shown: His-tag added to C-terminus
T4 chain: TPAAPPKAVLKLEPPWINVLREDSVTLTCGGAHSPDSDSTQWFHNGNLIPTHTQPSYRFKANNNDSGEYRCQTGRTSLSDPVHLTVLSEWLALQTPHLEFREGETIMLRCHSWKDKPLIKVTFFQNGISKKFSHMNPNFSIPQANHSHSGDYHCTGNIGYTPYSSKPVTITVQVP

T5: cynomolgus monkey FcγRIIa2 extracellular domain, C-terminal His-tag (cynomolgus monkey)
T5 construct: also called cyno FcγRIIa2; cynoFcgRIIa2; not shown: His-tag added to C-terminus
T5 chain: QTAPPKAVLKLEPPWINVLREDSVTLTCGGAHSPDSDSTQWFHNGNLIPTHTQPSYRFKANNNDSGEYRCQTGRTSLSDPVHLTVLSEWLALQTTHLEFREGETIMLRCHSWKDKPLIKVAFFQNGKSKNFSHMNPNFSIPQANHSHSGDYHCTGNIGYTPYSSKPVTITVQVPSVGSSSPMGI

T6: human FcγRIIaR extracellular domain, C-terminal His-tag (human, UniProt P12318 34-217)
T6 construct: also called human FcγRIIa (type R); FcgRIIaR; not shown: His-tag added to C-terminus
T6 chain: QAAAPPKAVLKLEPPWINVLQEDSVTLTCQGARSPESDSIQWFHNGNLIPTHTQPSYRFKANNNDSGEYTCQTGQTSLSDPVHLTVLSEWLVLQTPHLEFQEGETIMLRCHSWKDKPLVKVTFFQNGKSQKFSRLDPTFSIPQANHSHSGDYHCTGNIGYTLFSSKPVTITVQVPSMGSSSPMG

T7: human FcγRIIb extracellular domain, C-terminal His-tag (human, UniProt P31994 43-217)
T7 construct: also called humanFcgRIIb; not shown: His-tag added to C-terminus
T7 sequence: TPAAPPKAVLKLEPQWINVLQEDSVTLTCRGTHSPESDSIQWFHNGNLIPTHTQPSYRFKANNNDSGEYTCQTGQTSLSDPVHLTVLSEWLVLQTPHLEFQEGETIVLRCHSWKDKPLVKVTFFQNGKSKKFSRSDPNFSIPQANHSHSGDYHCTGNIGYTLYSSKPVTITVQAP


Tests used:
[1] = biological target: T1, cynomolgus monkey FcγRIIa1 …; assay: SPR; KD of SG1 divided by KD of the variant
Protocol: (§1) Regarding such interactions, KD values were calculated using the following 1:1 binding model described in BIACORE® T100 Software Handbook BR1006-48 Edition AE.
(§2) The behavior of interacting molecules according to the 1:1 binding model on BIACORE® can be described by Equation 1: Req=C·R max/(KD+C)+RI, wherein, Req is a plot of steady-state binding levels to analyte concentration. C is concentration, RI is bulk refractive index contribution in the sample, and Rmax is analyte binding capacity of the surface. When this equation is rearranged, KD can be expressed as Equation 2: KD=C·Rmax/(Req−RI)−C. KD can be calculated by substituting the values of Rmax, RI, and C into Equation 1 or Equation 2. From the current measurement conditions, RI=0, C=2 μmol/L can be used.
(§3) The resultant variants were expressed using M103202L889-SK1 as light chain and their affinity to human and cynoFcγRs were evaluated (Table 21).

[2] = biological target: T8, human FcγRIIIaV extracellular domain, His-tagged (human, UniProt P08637 17-208); assay: SPR; KD of SG1 divided by KD of the variant
T8 construct: also called human FcgRIIIaV; not shown: His-tag added to the C-terminus
Protocol: as §1, §2, §3

[3] = biological target: T2, cynomolgus monkey FcγRIIa2 …; assay: SPR; KD of SG1 divided by KD of the variant
Protocol: as §1, §2, §3

[4] = biological target: T3, human FcγRIIaR extracellular domain, …; assay: SPR; KD of SG1 divided by KD of the variant
Protocol: as §1, §2, §3

[5] = biological target: T9, cynomolgus monkey FcγRIIIaS extracellular domain, His-tagged (cynomolgus monkey, UniProt A3RFZ7 21-206 (rhesus entry)); assay: SPR; KD of SG1 divided by KD of the variant
T9 construct: also called cyno FcgRIIIaS; cynoFcγRIIIaS; not shown: His-tag added to the C-terminus
Protocol: as §1, §2, §3

[6] = biological target: T10, cynomolgus monkey FcγRIIIaS extracellular domain, C-terminal His-tag (cynomolgus monkey, UniProt A3RFZ7 21-206 (rhesus entry)); assay: SPR (BIACORE), antibody captured, FcγR analyte
T10 construct: also called cyno FcγRIIIaS; cynoFcγRIIIaS; not shown: His-tag added to C-terminus

[7] = biological target: T4, cynomolgus monkey FcγRIIb extracellular …; assay: SPR (BIACORE), antibody captured, FcγR analyte
[8] = biological target: T5, cynomolgus monkey FcγRIIa2 …; assay: SPR (BIACORE), antibody captured, FcγR analyte
[9] = biological target: T6, human FcγRIIaR extracellular domain, …; assay: SPR (BIACORE), antibody captured, FcγR analyte
[10] = biological target: T7, human FcγRIIb extracellular domain, …; assay: SPR (BIACORE), antibody captured, FcγR analyte

T8 sequence (P08637 17-208 F176V): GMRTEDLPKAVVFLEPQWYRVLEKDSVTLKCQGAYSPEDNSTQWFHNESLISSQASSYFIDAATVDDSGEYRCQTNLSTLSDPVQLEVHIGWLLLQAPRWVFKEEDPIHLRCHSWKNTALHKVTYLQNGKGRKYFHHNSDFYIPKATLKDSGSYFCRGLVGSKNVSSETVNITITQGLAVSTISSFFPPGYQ
T9 sequence (A3RFZ7 21-206): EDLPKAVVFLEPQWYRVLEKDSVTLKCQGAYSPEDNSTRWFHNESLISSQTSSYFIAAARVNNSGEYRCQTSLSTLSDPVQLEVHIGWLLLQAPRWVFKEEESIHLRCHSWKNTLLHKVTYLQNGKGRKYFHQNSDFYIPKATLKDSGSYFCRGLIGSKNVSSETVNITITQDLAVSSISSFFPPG
T10 sequence (A3RFZ7 21-206): as above

Binder | KD fold (SG1 = 1) [1] [fold] | KD fold (SG1 = 1) [2] [fold] | KD fold (SG1 = 1) [3] [fold] | KD fold (SG1 = 1) [4] [fold] | KD fold (SG1 = 1) [5] [fold] | Kd [6] [nM] | Kd [7] [nM] | Kd [8] [nM] | Kd [9] [nM] | Kd [10] [nM]
MS1032LO06-SG1 (M103205H795-SG1/M103202L889-SK1) (antibody, human IgG1, kappa, Anti-latent myostatin antibody; Parent of the Fc variants; copies: 2 + 2) heavy: not shown light: DIVMTQSPATLSLSPGERATLSCTSSQSVYHANWLSWFQQKPGQPPKLLIYWASTLAYGVPSRFSGSGSGTDFTLTISSLQPEDAATYYCAGGYGGGRYAFGQGTKVEIKRTVAAPSVFIFPPSDEQLKSGTASVVCLLNNFYPREAKVQWKVDNALQSGNSQESVTEQDSKDSTYSLSSTLTLSKADYEKHKVYACEVTHQGLSSPVTKSFNRGEC | 1 | 1 | 1 | 1 | 1 |  |  |  |  | 
M103205H795-MY201/M103202L889-SK1 (antibody, human IgG1, kappa, Fc variant G236N/H268D/A330K (EU numbering) of SG1; also called MS1032LO06-MY201; copies: 2 + 2) heavy: QVTLKESGPVLVKPTETLTLTCTVSGIDLSHDDISWVRQAPGKGLEWVGIISYAGSTYYASWAKGRLTISKDTSKNQVVLTMTNMDPVDTATYYCARGVPAYSHGGDLWGQGTLVTVSSASTKGPSVFPLAPSSKSTSGGTAALGCLVKDYFPEPVTVSWNSGALTSGVHTFPAVLQSSGLYSLSSVVTVPSSSLGTQTYICNVNHKPSNTKVDKKVEPKSCDKTHTCPPCPAPELLNGPSVFLFPPKPKDTLMISRTPEVTCVVVDVSDEDPEVKFNWYVDGVEVHNAKTKPREEQYNSTYRVVSVLTVLHQDWLNGKEYKCKVSNKALPKPIEKTISKAKGQPREPQVYTLPPSREEMTKNQVSLTCLVKGFYPSDIAVEWESNGQPENNYKTTPPVLDSDGSFFLYSKLTVDKSRWQQGNVFSCSVMHEALHNHYTQKSLSLSP light: DIVMTQSPATLSLSPGERATLSCTSSQSVYHANWLSWFQQKPGQPPKLLIYWASTLAYGVPSRFSGSGSGTDFTLTISSLQPEDAATYYCAGGYGGGRYAFGQGTKVEIKRTVAAPSVFIFPPSDEQLKSGTASVVCLLNNFYPREAKVQWKVDNALQSGNSQESVTEQDSKDSTYSLSSTLTLSKADYEKHKVYACEVTHQGLSSPVTKSFNRGEC | 2.3 | 0.03 | 3.6 | 0.6 | 0.06 |  |  |  |  | 
M103205H795-MY260/M103202L889-SK1 (antibody, human IgG1, kappa, copies: 2 + 2) heavy: QVTLKESGPVLVKPTETLTLTCTVSGIDLSHDDISWVRQAPGKGLEWVGIISYAGSTYYASWAKGRLTISKDTSKNQVVLTMTNMDPVDTATYYCARGVPAYSHGGDLWGQGTLVTVSSASTKGPSVFPLAPSSKSTSGGTAALGCLVKDYFPEPVTVSWNSGALTSGVHTFPAVLQSSGLYSLSSVVTVPSSSLGTQTYICNVNHKPSNTKVDKKVEPKSCDKTHTCPPCPAPELLMGPSVFLFPPKPKDTLMISRTPEVTCVVVDVSDEDPEVKFNWYVDGVEVHNAKTKPREEQYNSTYRVVSVLTVLHQDWLNGKEYKCKVSNKALPKPIEKTISKAKGQPREPQVYTLPPSREEMTKNQVSLTCLVKGFYPSDIAVEWESNGQPENNYKTTPPVLDSDGSFFLYSKLTVDKSRWQQGNVFSCSVMHEALHNHYTQKSLSLSP light: DIVMTQSPATLSLSPGERATLSCTSSQSVYHANWLSWFQQKPGQPPKLLIYWASTLAYGVPSRFSGSGSGTDFTLTISSLQPEDAATYYCAGGYGGGRYAFGQGTKVEIKRTVAAPSVFIFPPSDEQLKSGTASVVCLLNNFYPREAKVQWKVDNALQSGNSQESVTEQDSKDSTYSLSSTLTLSKADYEKHKVYACEVTHQGLSSPVTKSFNRGEC | 0.7 | 0.27 | 1.4 | 0.6 | 0.55 |  |  |  |  | 
M103205H795-MY261/M103202L889-SK1 (antibody, human IgG1, kappa, copies: 2 + 2) heavy: QVTLKESGPVLVKPTETLTLTCTVSGIDLSHDDISWVRQAPGKGLEWVGIISYAGSTYYASWAKGRLTISKDTSKNQVVLTMTNMDPVDTATYYCARGVPAYSHGGDLWGQGTLVTVSSASTKGPSVFPLAPSSKSTSGGTAALGCLVKDYFPEPVTVSWNSGALTSGVHTFPAVLQSSGLYSLSSVVTVPSSSLGTQTYICNVNHKPSNTKVDKKVEPKSCDKTHTCPPCPAPELLHGPSVFLFPPKPKDTLMISRTPEVTCVVVDVSDEDPEVKFNWYVDGVEVHNAKTKPREEQYNSTYRVVSVLTVLHQDWLNGKEYKCKVSNKALPKPIEKTISKAKGQPREPQVYTLPPSREEMTKNQVSLTCLVKGFYPSDIAVEWESNGQPENNYKTTPPVLDSDGSFFLYSKLTVDKSRWQQGNVFSCSVMHEALHNHYTQKSLSLSP light: DIVMTQSPATLSLSPGERATLSCTSSQSVYHANWLSWFQQKPGQPPKLLIYWASTLAYGVPSRFSGSGSGTDFTLTISSLQPEDAATYYCAGGYGGGRYAFGQGTKVEIKRTVAAPSVFIFPPSDEQLKSGTASVVCLLNNFYPREAKVQWKVDNALQSGNSQESVTEQDSKDSTYSLSSTLTLSKADYEKHKVYACEVTHQGLSSPVTKSFNRGEC | 0.9 | 0.07 | 1.3 | 1 | 0.15 |  |  |  |  | 
M103205H795-MY262/M103202L889-SK1 (antibody, human IgG1, kappa, copies: 2 + 2) heavy: QVTLKESGPVLVKPTETLTLTCTVSGIDLSHDDISWVRQAPGKGLEWVGIISYAGSTYYASWAKGRLTISKDTSKNQVVLTMTNMDPVDTATYYCARGVPAYSHGGDLWGQGTLVTVSSASTKGPSVFPLAPSSKSTSGGTAALGCLVKDYFPEPVTVSWNSGALTSGVHTFPAVLQSSGLYSLSSVVTVPSSSLGTQTYICNVNHKPSNTKVDKKVEPKSCDKTHTCPPCPAPELLVGPSVFLFPPKPKDTLMISRTPEVTCVVVDVSDEDPEVKFNWYVDGVEVHNAKTKPREEQYNSTYRVVSVLTVLHQDWLNGKEYKCKVSNKALPKPIEKTISKAKGQPREPQVYTLPPSREEMTKNQVSLTCLVKGFYPSDIAVEWESNGQPENNYKTTPPVLDSDGSFFLYSKLTVDKSRWQQGNVFSCSVMHEALHNHYTQKSLSLSP light: DIVMTQSPATLSLSPGERATLSCTSSQSVYHANWLSWFQQKPGQPPKLLIYWASTLAYGVPSRFSGSGSGTDFTLTISSLQPEDAATYYCAGGYGGGRYAFGQGTKVEIKRTVAAPSVFIFPPSDEQLKSGTASVVCLLNNFYPREAKVQWKVDNALQSGNSQESVTEQDSKDSTYSLSSTLTLSKADYEKHKVYACEVTHQGLSSPVTKSFNRGEC | 1.7 | 0.16 | 3 | 1.5 | 0.13 |  |  |  |  | 
MS_M103205H795-SG1/M103202L889-SK1 (antibody, human IgG1, kappa, Parent antibody with SG1 human heavy chain constant region; also called MS1032LO06-SG1) heavy: not shown light: DIVMTQSPATLSLSPGERATLSCTSSQSVYHANWLSWFQQKPGQPPKLLIYWASTLAYGVPSRFSGSGSGTDFTLTISSLQPEDAATYYCAGGYGGGRYAFGQGTKVEIKRTVAAPSVFIFPPSDEQLKSGTASVVCLLNNFYPREAKVQWKVDNALQSGNSQESVTEQDSKDSTYSLSSTLTLSKADYEKHKVYACEVTHQGLSSPVTKSFNRGEC |  |  |  |  |  | 280 | 1900 | 4700 | 1000 | 4700
